What is called stoichiometry N is a count of units in the complex or per binding partner. By Kd is commonly meant the equilibrium constant for the complex coming apart. A lower Kd goes with a tighter complex.

The text below walks through data of article doi:10.1101/2020.10.14.337170.

The target of assay [1] is Trypanosoma cruzi (Sylvio X10) KKT4^117–218 (Trypanosoma cruzi (Sylvio X10)). Kind of assay: crystal structure.
The target of assay [2] is SNAP-6HIS-3FLAG-KKT4 (KKT4^2–645) (Trypanosoma brucei). Kind of assay: SEC-MALS. (In general: In gel filtration, larger molecules generally elute earlier.)
The target of assay [3] is Fluorescently-labelled phosphopeptide derived from KKT8 (Trypanosoma brucei). Kind of assay: fluorescence polarisation.
Assay [4] deals with KKT4^2–114 (Trypanosoma brucei). The assay is described as follows: SEC-MALS.
For assay [5] the target is unchanged. The assay is described as follows: SEC-MALS. The source holds these as a separate data set.
In assay [6] the target is KKT4^101–352 (Trypanosoma brucei). Kind of assay: SEC-MALS.
In assay [7] the target is Leishmania mexicana KKT4^184–284 (Leishmania mexicana). The assay is described as follows: crystal structure.

Where two headings read alike, the source gives them in different places.

On to “Trypanosoma cruzi (Sylvio X10) KKT4^117–218 (domain or fragment)”, for which, in assay [1], the stoichiometry N was determined as 2.

With “SNAP-6HIS-3FLAG-KKT4 (KKT4^2–645) (natural protein)”, in assay [2], the stoichiometry N was 4.

“KKT4^463–645 (KKT4 BRCT domain) (domain or fragment)” registered a Kd in assay [3] of 30 µM.

Turning to KKT4^2–114 (domain or fragment), the stoichiometry N came out at 3 in assay [4] and 4 in assay [5].

In assay [6], KKT4^101–352 (domain or fragment) had a stoichiometry N of 2.

In turn, “Leishmania mexicana KKT4^184–284 (domain or fragment)” registered a stoichiometry N in assay [7] of 2.
